Each block holds one binder with its values, some of them ahead of it.
Experiments:
Conditions in all cases: both partners purified
[1] = molecular target: T1, DDDK-rHev b 8 (rHev b 8 with the last four residues of the enterokinase cleavage site at the N-terminus) (Hevea brasiliensis); assay: MALDI-TOF mass spectrometry; sinapinic acid matrix; samples of Fab/IgE 2F5 and of its complex with rHev b 8 (whole construct); the peaks of the complex and of the dimeric Fab were not calibrated
T1 construct: last four residues of the enterokinase cleavage site left at the N-terminus (D-3, D-2, D-1, K-0); D-2 makes a hydrogen bond with Y49 of the Fab light chain; profilin Hev b 8, Hevea brasiliensis, from M1; The whole construct was expected at 18,283 Da but measured 14,625 Da (14,629 Da in another paragraph): only DDDK is left of the N-terminal extension; also called DDDK-Hev b 8; rHev b 8 whole …
T1 chain: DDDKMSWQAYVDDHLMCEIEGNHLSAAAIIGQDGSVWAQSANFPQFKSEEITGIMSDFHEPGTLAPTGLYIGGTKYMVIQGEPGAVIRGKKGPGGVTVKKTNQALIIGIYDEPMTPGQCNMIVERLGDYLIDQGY

[2] = molecular target: T2, biotinylated rHev b 8 (Hevea brasiliensis, biotin (1:5 profilin:biotin ratio; sites not stated)); assay: BLI; same BLI data (biotinylated rHev b 8 on streptavidin, 25 °C, PBS pH 7.4, 0.05% Tween 20, 1 M NaCl); kon from the association step and koff from the dissociation step fitted separately in Prism 8, KD = koff/kon
T2 construct: profilin Hev b 8, Hevea brasiliensis, named 'rHev b 8' in the BLI methods; The BLI methods say only 'Profilin rHev b 8'; also called biotinylated profilin; biotinylated allergen; source: E. coli Rosetta (DE3), purified (HisTrap), then biotinylated at a 1:5 profilin:biotin ratio and dialyzed
T2 chain: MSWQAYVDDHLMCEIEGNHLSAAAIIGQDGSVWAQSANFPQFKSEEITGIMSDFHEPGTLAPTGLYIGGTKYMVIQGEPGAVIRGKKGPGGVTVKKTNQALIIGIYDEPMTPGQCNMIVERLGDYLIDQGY

[3] = molecular target: T2, biotinylated rHev b 8; assay: BLI; biotinylated rHev b 8 (125 nM) on streptavidin biosensors; Fab/IgE 2F5 at 62.5-2000 nM; 25 °C; PBS pH 7.4, 0.05% Tween 20, 1 M NaCl; 1:1 global fit considering nonspecific binding (Association-Dissociation model, GraphPad Prism 8)
[4] = molecular target: T1, DDDK-rHev b 8 (rHev b 8 with the last …); assay: ELISA; plates coated with 100 μL of 0.7 μM profilin in PBS pH 7.4, blocked with 1% BSA; IgE 2F5 in PBS, 1 h 37 °C; detected with HRP anti-mouse IgE Fcε, ABTS, 405 nm; n = 4
[5] = molecular target: T3, recombinant maize profilin (rZea m 12) (Zea mays); assay: as above
T3 construct: profilin Zea m 12, maize; has D14, G98, V118, E128; The mutagenesis primers encode KKT(N)MSL and YLI(D)QGF around positions 98 and 128
T3 chain: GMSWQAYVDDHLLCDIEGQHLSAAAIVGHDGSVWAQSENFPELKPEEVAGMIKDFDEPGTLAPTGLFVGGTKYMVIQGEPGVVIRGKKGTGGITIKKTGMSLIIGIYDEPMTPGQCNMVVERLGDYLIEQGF

- binding result [1]: binds
- Kd [2]: 369 ± 3.8 nM
- Kd [3]: 370 ± 6.8 nM
B1: Fab/IgE 2F5 (papain Fab fragment of the murine IgE 2F5) (Fab, V domains shown)
VH: EVQLVESGGGLVQPKGSLKLSCAASGFTFNTYAMNWVRQAPGKGLEWVARIRTKTNNYVTYYADSVKDRFTISRDDSQSMLYLQMNNLKTEDTAMYYCVRHVGDYWGQGTSVTVSS
VL: DIQMTQSPASLSASVGETVTITCRASGNIHNYLAWFQQKQGKSPQLLVYNAKTLADGVPSRFSGSGSGTQYSLKINSLQPEDFGSYYCQHFWSTPYTFGGGTKLEIK
notes: VH and Cε1; papain cleavage site said to be R209/P210 between Cε1 and Cε2; light chain of IgE 2F5; also called the Fab; source: papain digest of IgE 2F5 (36 h, 37 °C), purified (Superdex 75 SEC, Mono Q)

- binding result [4]: binds
- binding result [5]: no binding
B2: murine monoclonal IgE antibody 2F5 (anti-profilin Hev b 8) (antibody, V domains shown)
VH: B1 VH
VL: B1 VL
notes: rest of the murine IgE (epsilon) heavy chain constant region after the papain site R209/P210 (Cε2 onward); as the light chain of m2; Native, non-recombinant IgE with naturally paired chains; also called IgE 2F5; mAb 2F5; copies: 2 + 2

Reference: publication PMC9334453, “A native IgE in complex with profilin provides insights into allergen recognition and cross-reactivity” (Communications Biology, 2022)
